How the values were obtained:
[1] = target: T1, human alpha2-Antiplasmin (human, UniProt P08697 40-491); assay: cell-based or functional assay
T1 sequence: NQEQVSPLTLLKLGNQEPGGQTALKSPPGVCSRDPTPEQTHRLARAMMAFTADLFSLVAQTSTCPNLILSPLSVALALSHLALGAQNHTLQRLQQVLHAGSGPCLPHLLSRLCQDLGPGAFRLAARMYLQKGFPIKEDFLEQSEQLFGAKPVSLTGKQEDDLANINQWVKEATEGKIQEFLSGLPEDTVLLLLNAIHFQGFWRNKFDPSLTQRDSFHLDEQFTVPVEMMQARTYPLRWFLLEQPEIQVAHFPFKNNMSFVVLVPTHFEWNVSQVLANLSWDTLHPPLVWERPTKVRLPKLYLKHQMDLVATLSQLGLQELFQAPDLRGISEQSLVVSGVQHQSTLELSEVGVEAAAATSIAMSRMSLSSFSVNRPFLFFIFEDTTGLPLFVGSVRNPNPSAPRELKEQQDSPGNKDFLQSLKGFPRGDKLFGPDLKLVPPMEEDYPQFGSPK

[2] = target: T2, rabbit alpha2-Antiplasmin (rabbit (Oryctolagus cuniculus)); assay: cell-based or functional assay
T2 chain: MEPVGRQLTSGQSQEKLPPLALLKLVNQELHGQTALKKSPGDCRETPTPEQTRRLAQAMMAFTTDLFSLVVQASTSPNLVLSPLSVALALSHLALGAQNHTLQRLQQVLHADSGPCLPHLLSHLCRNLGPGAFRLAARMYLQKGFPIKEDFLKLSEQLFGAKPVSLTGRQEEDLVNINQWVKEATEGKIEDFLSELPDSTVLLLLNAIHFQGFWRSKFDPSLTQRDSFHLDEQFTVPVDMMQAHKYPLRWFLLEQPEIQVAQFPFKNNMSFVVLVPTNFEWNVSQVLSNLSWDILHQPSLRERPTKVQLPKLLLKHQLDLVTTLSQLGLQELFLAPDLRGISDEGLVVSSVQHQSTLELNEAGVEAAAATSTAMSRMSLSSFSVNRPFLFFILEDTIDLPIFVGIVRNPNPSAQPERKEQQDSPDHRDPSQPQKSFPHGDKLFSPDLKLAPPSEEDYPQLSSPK

[3] = target: T3, cynomolgus alpha2-Antiplasmin (cynomolgus (Macaca fascicularis), UniProt P08697 28-491 (human entry)); assay: cell-based or functional assay
T3 chain: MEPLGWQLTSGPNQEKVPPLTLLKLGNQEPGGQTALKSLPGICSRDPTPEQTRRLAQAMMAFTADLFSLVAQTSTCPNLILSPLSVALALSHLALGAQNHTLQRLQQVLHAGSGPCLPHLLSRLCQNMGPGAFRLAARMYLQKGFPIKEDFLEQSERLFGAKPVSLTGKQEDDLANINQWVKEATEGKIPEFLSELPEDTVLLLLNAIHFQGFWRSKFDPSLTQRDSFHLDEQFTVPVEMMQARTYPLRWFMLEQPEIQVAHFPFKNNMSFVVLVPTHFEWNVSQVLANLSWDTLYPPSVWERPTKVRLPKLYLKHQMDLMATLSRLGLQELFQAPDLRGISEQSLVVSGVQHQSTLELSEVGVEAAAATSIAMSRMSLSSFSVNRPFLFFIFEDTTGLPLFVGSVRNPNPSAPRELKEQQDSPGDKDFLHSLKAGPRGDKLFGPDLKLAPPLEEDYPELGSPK

[4] = target: T1, human alpha2-Antiplasmin; assay: ELISA, coated antigen, 1st exp.
[5] = target: T2, rabbit alpha2-Antiplasmin; assay: ELISA, coated antigen, 1st exp.
[6] = target: T3, cynomolgus alpha2-Antiplasmin; assay: ELISA, coated antigen, 1st exp.
[7] = target: T1, human alpha2-Antiplasmin; assay: ELISA, coated antigen, 3rd exp.
Procedure: (§1) A standard ELISA format was used for analyzing the binding affinity of Fabs of this invention to human and rabbit alpha-2-Antiplasmin, respectively. Antigens were coated to black 384 well Maxisorp microtiter plates (Nunc; catalogue number 460518), diluted to a concentration of 1 μg/ml in 1× Coating Buffer (Candor Bioscience; catalogue number 121125). Plates were incubated overnight at 4° C. After overnight incubation, plates were washed 2× with 50 μl/well using PBS+0.05% Tween 20. Following this, 50 μl/well of blocking buffer (Smart Block; Candor Bioscience; catalogue number 113500) was added and the plates were incubated for 1 hour at room temperature. Afterwards, plates were washed for 3× using […] PBS+0.05% Tween 20 buffer. Fabs of this invention were added at different concentrations in a final volume of 30 μl/well. Plates were incubated for 1 hour at room temperature. Following this incubation step, plates were washed for 3× using 50 μl/well of a PBS+0.05% Tween 20 buffer. For the detection of bound Fabs and full-length antibodies, the anti-Human Lambda Light Chains (Bound and Free)—Peroxidase antibody (Sigma; catalogue number A5175) was diluted by the factor of 1:10.000 in 10% Blocking Buffer. […]
For measurement, the Infinite f500 reader (Tecan) was used. Measurement mode: Fluorescence; Top reading; Ex 535 nm; Em 590 nm.

[8] = target: T1, human alpha2-Antiplasmin; assay: ELISA (Example 3): antigen coated at 1 ug/ml, detection with anti-human lambda light chain-peroxidase and Amplex Red, RFU [left panel]
Procedure: Binding activities towards human alpha2-Antiplasmin are shown in the left panel, towards rabbit alpha2-Antiplasmin are shown in the right panel of this figure. The binding activities were calculated as EC50 in M values.
as §1, with “buffer.” for “buffer. For the detection of bound Fabs and full-length antibodies, the anti-Human Lambda Light Chains (Bound and Free)—Peroxidase antibody (Sigma; catalogue number A5175) was diluted by the factor of 1:10.000 in 10% Blocking Buffer.”
For measurement, the Infinite f500 reader (Tecan) was used.

B1: TPP-12387 hIgG1 (antibody, V domains shown)
VH: EVQLLESGGGLVQPGGSLRLSCAASGFTFDDYAMSWVRQAPGKGLEWVSAIGTGGGTYYADSVKGRFTISRDNSKNTLYLQMNSLRAEDTAVYYCAREYYDSSGYYHLDYWGQGTLVTVSS
VL: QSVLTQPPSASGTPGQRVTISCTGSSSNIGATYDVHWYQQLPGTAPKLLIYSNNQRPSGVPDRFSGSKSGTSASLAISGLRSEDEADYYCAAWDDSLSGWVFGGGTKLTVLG
notes: Fully human IgG1 lambda from the BioInvent n-CoDeR Fab lambda library; parental lead antibody
With B1 the “function blocking activity IC50, 1st exp. (FIG. 5)” value [1] was 170 nM, the “function blocking activity IC50, 2nd exp.” value [1] was 180 nM and the “function blocking activity IC50, 3rd exp.” value [1] was 180 nM. The “function blocking activity EC50 (FIG. 5 legend)” value [2] was 1.4 nM, the “printed as 'binding activity' in the sentence on function blocking (IC50), 1st exp.” value [2] was 14 nM and the “printed as 'binding activity' in the sentence on function blocking (IC50), 2nd exp.” value [2] was 13 nM. The “printed as 'binding activity' in the sentence on function blocking (IC50), 3rd exp.” value [2] was 15 nM, the “function blocking activity IC50, 1st exp. (FIG. 6.2)” value [3] was 160 nM and the “function blocking activity IC50, 2nd exp.” value [3] was 160 nM. It also gave an EC50 [4] of 120 nM, an EC50 [5] of 6 nM and an EC50 [6] of 90 nM. For the same binder, the EC50 [7] was 130 nM and the “EC50 (read off the curve)” value [8] was ~100 nM.
